From article PMC12379891

Biological target: AeCRK^G359E (kinase-dead cysteine-rich receptor-like kinase of Aeschynomene evenia), mCherry-tagged and YFP-tagged copies (Aeschynomene evenia)
Test: co-IP

Substance	fold enrichment in the co-IP over the negative control MtLYK3-CFP [fold]
AeCRK^G359E (kinase-dead cysteine-rich receptor-like kinase of Aeschynomene evenia), mCherry-tagged and YFP-tagged copies	7.37
AeRLCK2-YFP (receptor-like cytoplasmic kinase 2 of Aeschynomene evenia) (natural protein)	2.9
